Molecules are shown by their SMILES. Counter-ions that a name gives are not always drawn.

Anti-Xa activity and half life data for one compound are collected here from patent US7576071B2, “Antithrombotic compound” (sanofi-aventis, priority 2004, dated 2009).

One data set relates to Bovine factor Xa. The data set can be described thus: Determination of anti-factor Xa activity in buffer (microtiter plate method, AT-III mediated). The conditions noted are these: Kabi buffer, human AT-III. It counts as biochemical. From the text:
II. Determination of Anti-Factor Xa Activity in Buffer
(Microtiter Plate Method)
Anticoagulants can inhibit Xa directly or, like heparin, by potentiating the inhibitory activity of AT-III. Anti-Xa activity can be assessed by determination of the rate of hydrolysis of the chromogenic substrate S-2222 in the presence of AT-III. This assay is used to determine anti-Xa activity of heparinoid preparations in Kabi buffer.
Test medium: Kabi buffer.
Ref. compound: International standard heparin (11.4 anti-Xa U/mg).
Composition of the buffer: NaCl 10.17 g (174 mmol); edetate disodium dihydrate 3.26 g (9.6 mmol); tromethamine (Tris) 6.11 g (50.4 mmol); made up to 1 L with ultrapure H2O *. The pH of the solution is adjusted to 7.4 with hydrochloric acid (0.10 mol/L)
Bovine factor Xa (Kabi Diagnostica, Stockholm, Sweden) is dissolved in Kabi buffer to give a solution containing 1.5 U/mL (0.75 nKat/mL). • 3. S-2222 solution
S-2222 (Kabi Diagnostica) is dissolved in ultrapure H2O to give a solution containing 0.375 mg/mL (0.5 mmol/L). • 4. AT-III solution
Human AT-III (Kabi Diagnostica) is dissolved in Kabi buffer to give a solution containing 0.25 U/mL. A fresh solution has to be prepared daily. • 5. Standard solution of the calibration sample
Standard heparin is dissolved in Kabi buffer to give a standard solution containing approx. 0.25 anti-Xa U/mL.
Each preparation is dissolved in ultrapure H2O and diluted with Kabi buffer to the required concentrations in the range of 0.02-0.2 anti-Xa U/mL
Each test sample (0.05 mL) is pipetted into a well of a microtiter plate at RT. AT-III solution (0.05 mL) is added to each sample and the plate is shaken using a Vari-shaker.
An aliquot of Xa solution (0.05 mL) is pipetted into each well 10 min following addition of AT-III solution and the plate is shaken again. Exactly 2 min following addition of Xa solution, 0.1 mL S-2222 solution is pipetted into each well and the plate is shaken again. For all additions a 12-channel pipette is used.
The remaining amount of Xa catalyses the hydrolysis of S-2222, the rate of which is measured photometrically following incubation periods of 2 and 22 min respectively at RT. The absorbance of each sample is measured at 405 nm using a Reader Microelisa, model 310C (Organon Teknika, Oss, The Netherlands) and the increase in absorbance (ΔOD) is calculated. Each test sample is determined in duplicate. With every 10 samples, a blank (0.05 mL Kabi buffer) is included.
From an aliquot of the standard solution of the calibration sample a range of dilutions is made (dilution factor 1,3 for heparin samples). The resulting standard samples (approx. 15 samples) should contain between 0.01-0.25 anti-Xa U/mL. […]
For each sample the mean anti-Xa activity in U/mL is determined using the calibration curve. […]

The nature of data set [1]: Pharmacokinetics (half-life) in guinea pigs. The conditions noted are these: 0.5 μmol/kg i.v., ex-vivo plasma anti-Xa activity, compared to reference GpIIb/IIIa antagonists (XVII, XIX, XX by LC-MS/MS). The method, then: Guinea pigs (DH) were administered 0.5 μmol/kg (i.v.) of anticoagulant. The half-life of the pentasaccharide XXII, the “parent” of the oligosaccharide part of the conjugates, and conjugate VIII were indirectly assigned by ex-vivo determination of plasma anti-Xa activity at specific time-intervals as described above. The half-lives of the reference GPIIb/IIIa antagonists XVII, XIX and XX (see Scheme 10) were determined by measuring the plasma concentration at specific time-intervals using LC-MS/MS.

In the case of `CO[C@H]1O[C@H](COS(=O)(=O)O)[C@@H](O[C@@H]2O[C@@H](C(=O)O)[C@@H](O[C@H]3O[C@H](COS(=O)(=O)O)[C@@H](O[C@@H]4O[C@H](C(=O)O)[C@@H](O[C@H]5O[C@H](COS(=O)(=O)O)[C@@H](OCCOCCOCCOCCNC(=O)COCCOCCOCCOCCNC(=O)[C@H](CC(=O)O)NC(=O)[C@@H]6CCCN(C(=O)CCC7CCNCC7)C6)[C@H](OC)[C@H]5OC)[C@H](OC)[C@H]4OC)[C@H](OS(=O)(=O)O)[C@H]3OS(=O)(=O)O)[C@H](OC)[C@H]2OC)[C@H](OC)[C@H]1OS(=O)(=O)O` [Compound VIII, sodium salt], the Anti-Xa activity with Bovine factor Xa (substrate S-2222, calibrated against standard heparin) was 605 ± 43 U/mg; in the data set with Bovine factor Xa (substrate S-2222, per nmol (from U/mg and Mw)), 1.45 U/nmol. The half life entry in data set [1] is “significantly prolonged”.
